Data from article PMC6475665, “Alone at last! – Heterologous expression of a single gene is sufficient for establishing the five-step Weimberg pathway in Corynebacterium glutamicum” (Metabolic Engineering Communications, 2019).

Substrate: O=CCCC(=O)C(=O)O
Assay: purified protein
Assay type: biochemical, Corynebacterium glutamicum
Details: 5 mM NAD+, 100 mM potassium phosphate, pH 7.5, 30 °C

B1: KsaD (Cg0535) (Corynebacterium glutamicum ATCC 13032) (protein)
chain: MITATALHGCSLIDGEWVAGKNGEITGFDPRTNASLNPSYSLANSAQLRAATTSAKRAFESYRLTTPEVRADFLDSIADNIDALSGEIVQRASLETGLGTTRLTGEVARTSNQLRLFAETVRSGQFHRVRIERGPRIDLRQRQVPLGPVAVFGASNFPVAFSTAGGDTASALAAGCPVVFKAHNAHPGTAELVGQAVRGAVEKHEFDAGVFNLVYGRGVEIGQELAADPNITAIGFTGSRQGGLALSQTAFSRPVPVPVFAEMSATNPVFVFPGALADLDASSSLAEAFTASVTGSSGQLCTKPGLVFIPRGVVGDAFVALVAAKFKETTGQTMLTQGIAQAWQRGVDNLAAQPSVKILAQGTPGDGENAPGPVVFESDVQALLNNVVLQEEIFGAASLVVRYDSPDQLHQVANSLEGQLTATIHASQDDFQEVSKLIPLLEDLAGRVLYGGWPTGVEVGHTVIHGGPYPATSNAQSTSVGTLAIERFMRPVSYQTFPAELLPDPVSEANKWAVPREIDR
notes: N-terminus MITATA after tag (from primer)
Km: 870 µM
